Assay results published in paper PMC5342696.

Molecular target: membrane IgG (mIgG) on IgG-expressing B-cell lines (human (endogenous in CRL 2632 and CRL 2289)) [IgG part: P01857]
Experiment: hemadsorption/hemagglutination (protein G-RBC rosetting); mIgG-expressing B-cells exposed to protein G-RBCs at 4°C without added mAb, rosettes scored by phase contrast microscopy

- HA background (percent rosetted cells): < 30%
Substance: protein G on red blood cells (protein G-RBC) (from UniProt P19909 34-562) (natural protein)
